Assay results: patent publication US20240166688

Target: T1, peptide of SEQ ID NO: 1
T1 chain: GKCSTRGRKCCRRKK

B1: HDAC5 in RAW 264.7 cells (protein)
chain: MNSPNESDGMSGREPSLGILPRTPLHSIPVAVEVKPVLPGAMPSSMGGGGGGSPSPVELRGALAGPMDPALREQQLQQELLVLKQQQQLQKQLLFAEFQKQHDHLTRQHEVQLQKHLKQQQEMLAAKRQQELEQQRQREQQRQEELEKQRLEQQLLILRNKEKSKESAIASTEVKLRLQEFLLSKSKEPTPGGLNHSLPQHPKCWGAHHASLDQSSPPQSGPPGTPPSYKLPLLGPYDSRDDFPLRKTASEPNLKVRSRLKQKVAERRSSPLLRRKDGTVISTFKKRAVEITGTGPGVSSVCNSAPGSGPSSPNSSHSTIAENGFTGSVPNIPTEMIPQHRALPLDSSPNQFSLYTSPSLPNISLGLQATVTVTNSHLTASPKLSTQQEAERQALQSLRQGGTLTGKFMSTSSIPGCLLGVALEGDTSPHGHASLLQHVCSWTGRQQSTLIAVPLHGQSPLVTGERVATSMRTVGKLPRHRPLSRTQSSPLPQSPQALQQLVMQQQHQQFLEKQKQQQMQLGKILTKTGELSRQPTTHPEETEEELTEQQEALLGEGALTIPREGSTESESTQEDLEEEEEEEEEEEEDCIQVKDEDGESGPDEGPDLEESSAGYKKLFADAQQLQPLQVYQAPLSLATVPHQALGRTQSSPAAPGSMKSPTDQPTVVKHLFTTGVVYDTFMLKHQCMCGNTHVHPEHAGRIQSIWSRLQETGLLGKCERIRGRKATLDEIQTVHSEYHTLLYGTSPLNRQKLDSKKLLGPISQKMYAMLPCGGIGVDSDTVWNEMHSSSAVRMAVGCLVELAFKVAAGELKNGFAIIRPPGHHAEESTAMGFCFFNSVAITAKLLQQKLSVGKVLIVDWDIHHGNGTQQAFYNDPSVLYISLHRYDNGNFFPGSGAPEEVGGGPGVGYNVNVAWTGGVDPPIGDVEYLTAFRTVVMPIAQEFSPDVVLVSAGFDAVEGHLSPLGGYSVTARCFGHLTRQLMTLAGGRVVLALEGGHDLTAICDASEACVSALLSVELQPLDEAVLQQKPSVNAVATLEKVIEIQSKHWSCVQRFAAGLGCSLREAQTGEKEEAETVSAMALLSVGAEQAQAVATQEHSPRPAEEPMEQEPAL
In the case of B1, the “Phosphorylation ratio (Phospho explorer antibody microarray, peptide + LPS against LPS alone)” value is reported as “phosphorylation of HDAC5 was inhibited the most (0.278)”.
